Reference: IntAct's records for PubMed 11579209

B1: Tyrosine-protein phosphatase non-receptor type 1 (Homo sapiens), P18031 (parent)
chain: MEMEKEFEQIDKSGSWAAIYQDIRHEASDFPCRVAKLPKNKNRNRYRDVSPFDHSRIKLHQEDNDYINASLIKMEEAQRSYILTQGPLPNTCGHFWEMVWEQKSRGVVMLNRVMEKGSLKCAQYWPQKEEKEMIFEDTNLKLTLISEDIKSYYTVRQLELENLTTQETREILHFHYTTWPDFGVPESPASFLNFLFKVRESGSLSPEHGPVVVHCSAGIGRSGTFCLADTCLLLMDKRKDPSSVDIKKVLLEMRKFRMGLIQTADQLRFSYLAVIEGAKFIMGDSSVQDQWKELSHEDLEPPPEHIPPPPRPPKRILEPHNGKCREFFPNHQWVKEETQEDKDCPIKEEKGSPLNAAPYGIESMSQDTEVRSRVVGGSLRGAQAASPAKGEPSLPEKDEDHALSYWKPFLVNMCVATVLTAGAYLCYRFLFNSNT

Variants of: B1
Details: with insr_human INSR

Variant | effect of a mutation on the interaction
S50A | decreasing interaction

Variants of: B1
Details: with insr_human INSR
Remark: another data set of the same source

Variant | effect of a mutation on the interaction
S50D | disrupting interaction
